These results are taken from patent US20200062814A1.

In series [1] the test system is mouse IgG1 (Fc)-LAP-MMP-IFN.
The target of series [2] is mouse IgG1 (Fc)-LAP-MMP-IFN. Nature of the series: cell-based or functional assay.

mouse IgG1 (Fc)-LAP-MMP-IFN, sequence (chain, as listed by the source): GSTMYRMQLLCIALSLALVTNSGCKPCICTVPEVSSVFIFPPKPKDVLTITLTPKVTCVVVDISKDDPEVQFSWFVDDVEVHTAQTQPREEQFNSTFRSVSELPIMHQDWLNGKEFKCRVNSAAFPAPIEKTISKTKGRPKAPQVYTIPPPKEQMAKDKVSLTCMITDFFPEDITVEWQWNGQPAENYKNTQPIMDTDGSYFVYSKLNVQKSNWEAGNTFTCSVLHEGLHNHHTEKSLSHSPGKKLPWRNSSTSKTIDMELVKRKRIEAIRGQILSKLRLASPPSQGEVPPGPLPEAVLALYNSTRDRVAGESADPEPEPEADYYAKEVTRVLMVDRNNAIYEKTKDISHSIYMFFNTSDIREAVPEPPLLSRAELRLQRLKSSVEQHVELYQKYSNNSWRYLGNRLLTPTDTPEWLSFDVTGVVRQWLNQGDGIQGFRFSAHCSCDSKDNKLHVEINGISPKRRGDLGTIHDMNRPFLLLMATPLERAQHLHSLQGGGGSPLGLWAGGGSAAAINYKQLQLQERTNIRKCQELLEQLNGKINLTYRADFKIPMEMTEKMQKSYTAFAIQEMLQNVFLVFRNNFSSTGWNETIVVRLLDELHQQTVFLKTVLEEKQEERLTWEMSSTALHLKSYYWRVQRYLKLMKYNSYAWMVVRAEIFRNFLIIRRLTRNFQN
recombinant MMP-1, sequence (P03956 100-469): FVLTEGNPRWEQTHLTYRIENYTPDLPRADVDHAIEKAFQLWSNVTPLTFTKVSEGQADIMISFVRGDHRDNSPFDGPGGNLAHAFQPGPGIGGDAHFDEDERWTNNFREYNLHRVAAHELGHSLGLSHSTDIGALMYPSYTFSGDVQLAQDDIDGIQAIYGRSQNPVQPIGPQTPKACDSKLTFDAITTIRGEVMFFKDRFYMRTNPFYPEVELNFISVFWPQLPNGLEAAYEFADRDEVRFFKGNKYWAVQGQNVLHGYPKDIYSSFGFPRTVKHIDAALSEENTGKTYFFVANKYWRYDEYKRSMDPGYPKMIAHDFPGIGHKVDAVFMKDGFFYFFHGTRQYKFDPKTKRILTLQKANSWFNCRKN

Regarding recombinant MMP-1, in series [1], the IFN biological activity (U/ml) came to 30 U/ml and the “cleavage of Ig-LAP-IFN by MMP1 (western blot with anti-LAP antibodies after non-denaturing SDS-PAGE)” value is “The molecular weight of the cleaved Ig-LAP corresponds to the expected size of about 160 kDa”.

recombinant MMP-1 (enzyme): the Luciferase activity (viability of L929 cells after EMC virus infection) in series [2] was found to be 5070.
